B1: library; numbered along this chain (parent)
chain: MAAAAAAAAEQQSSNGPVKKSMREKAVERRSVNKEHNSNFKAGYIPIDEDRLHKTGLRGRKGNLAICVIILLFILAVINLIITLVIWAVIRIGPNGCDSMEFHESGLLRFKQVSDMGVIHPLYKSTVGGRRNENLVITGNNQPIVFQQGTTKLSVENNKTSITSDIGMQFFDPRTQNILFSTDYETHEFHLPSGVKSLNVQKASTERITSNATSDLNIKVDGRAIVRGNEGVFIMGKTIEFHMGGNMELKAENSIILNGSVMVSTTRLPSSSSGDQLGSGDWVRYKLCMCADGTLFKVQVTSQNMGCQISDNPCGNTH

Variants of: B1
Assay: SGCB cell-surface expression functional score (HA stain, bin4 vs bin1, normalised to synonymous) (log10 ratio); higher = more cell-surface SGCB (functional)
Description: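 Deep mutational scan of full-length human SGCB (YFP-SGCB-HA, NNN codon sublibraries A-F) delivered by lentivirus at low MOI into ADG-HEK293 cells stably expressing SGCA, SGCD and SGCG. YFP-positive cells were stained for surface HA on unpermeabilized cells and FACS-sorted into bins. The functional score is log10(frequency in high bin 4 / frequency in low bin 1), normalised per chunk so that synonymous variants have mean 0 and SD 0.5. Scores are the median over codons and over duplicate biological replicates; scores below -0.5 are called non-functional. Scale: negative means deleterious.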

| Variant | SGCB cell-surface expression functional score (log10) |
| --- | --- |
| MAAAAAAAAEQQSSNGPVKKSMREKAVERRSVNKEHNSNFKAGYIPIDEDRLHKTGLRGRKGNLAICVIILLFILAVINLIITLVIWAVIRIGPNGCDSMEFHESGLLRFKQVSDMGVIHPLYKSTVGGRRNENYVITGNNQPIVFQQGTTKLSVENNKTSITSDIGMQFFDPRTQNILFSTDYETHEFHLPSGVKSLNVQKASTERITSNATSDLNIKVDGRAIVRGNEGVFIMGKTIEFHMGGNMELKAENSIILNGSVMVSTTRLPSSSSGDQLGSGDWVRYKLCMCADGTLFKVQVTSQNMGCQISDNPCGNTH [L135Y] | -0.88 |
| MAAAAAAAAEQQSSNGPVKKSMREKAVERRSVNKEHNSNFKAGYIPIDEDRLHKTGLRGRKGNLAICVIILLFILAVINLIITLVIWAVIRIGPNGCDSMEFHESGLLRFKQVSDMGVIHPLYKSTVGGRRNENLVITGNNQPIVFQQGTTKLSVENNKTSITSDIGMQFFDPRTQNILFSTDYETHEFHLPSGVKSLNVQKASTERITSNATSDLNIKVDGRAIVRGNEGVFIMGKTIEFHMGGNMELKAENSIILNGSVMVSTTRLPSSSSGDQYGSGDWVRYKLCMCADGTLFKVQVTSQNMGCQISDNPCGNTH [L277Y] | -0.12 |
| MAAAAAAAAEQQSSNGPVKKSMREKAVERRSVNKEHNSNFKAGYIPIDEDRLHKTGLRGRKGNLAICVIILLFILAVINLIITLVIWAVIRIGPNGCDSMEFHESGLLRFKQVSDMGVIHPLYKSTVGGRRNENLVITGNNQPIVFQQGTTKLSVENNKTSITSDIGMQFFDPRTQNILFSTDYETHEFHLPSGVKSLNVQKASTERITSAATSDLNIKVDGRAIVRGNEGVFIMGKTIEFHMGGNMELKAENSIILNGSVMVSTTRLPSSSSGDQLGSGDWVRYKLCMCADGTLFKVQVTSQNMGCQISDNPCGNTH [N211A] | -0.33 |
| MAAAAAAAAEQQSSNGPVKKSMREKAVERRSVNKEHNSNFKAGYIPIDEDRLHKTGLRGRKGNLAICVIILLFILAVINLIITLVIWAVIRIGPNGCDSMEFHESGLLRFKQVSDMGVIHPLYKSTVGGRRNENLVITGNNQPIVFQQGTTKLSVENNKTSITSDIGMQFFDPRTQNILFSTDYEVHEFHLPSGVKSLNVQKASTERITSNATSDLNIKVDGRAIVRGNEGVFIMGKTIEFHMGGNMELKAENSIILNGSVMVSTTRLPSSSSGDQLGSGDWVRYKLCMCADGTLFKVQVTSQNMGCQISDNPCGNTH [T186V] | -0.85 |
| MAAAAAAAAEQQSSNGPVKKSMREKAVERRSVNKEHNSNFKAGYIPIDEDRLHKTGLRGRKGNLAICVIILLFILAVINLIITLVIWAVIRIGPNGCDSMEFHESGLLRFKQVSDMGVIHPLYKSTVGGRRNENLVITGNNQPIVFQQGTTKLSVENNKTSITSDIGMQFFDPRTQNILFSTDYETHEFHLPSGVKSLNVQKASTERITSNATSDLNIKVDGRAIVRMNEGVFIMGKTIEFHMGGNMELKAENSIILNGSVMVSTTRLPSSSSGDQLGSGDWVRYKLCMCADGTLFKVQVTSQNMGCQISDNPCGNTH [G228M] | -0.15 |
| MAAAAAAAAEQQSSNGPVKKSMREKAVERRSVNKEHNSNFKAGYIPIDEDRLHKTGLRGRKGNLAICVIILLFILAVINLIITLVIWAVIRIGPNGCDSMEFHESGLLRFKQVSDMGVIHPLYKSTVGGRRNENLVITGNNQPIVFQQGTTKLSVENNKTSITSDIGMQFFDPRTQNILFSTDYETHEFHLPSGVKSLNVQKYSTERITSNATSDLNIKVDGRAIVRGNEGVFIMGKTIEFHMGGNMELKAENSIILNGSVMVSTTRLPSSSSGDQLGSGDWVRYKLCMCADGTLFKVQVTSQNMGCQISDNPCGNTH [A203Y] | -2.13 |
| MAAAAAAAAEQQSSNGPVKKSMREKAVERRSVNKEHNSNFKAGYIPIDEDRLHKTGLRGRKGNLAICVIILLFILAVINLIITLVIWAVIRIGPNGCDSMEFHESGLLRFKQVSDMGVIHPLYKSTVGGRRNENLVITGNNQPIVFQQGTTKLSVENNKTSITSDIGMQFFDPRTQNILFSTDYETHEFHLPSGVKSLNVQKASTERITSNATSDLNIKVDGRAIVRGNEGVFIMGKTIEFHMGGNMELKAENSIILNGSVMVSTTRLPSSSSGDQLISGDWVRYKLCMCADGTLFKVQVTSQNMGCQISDNPCGNTH [G278I] | 0.08 |
| MAAAAAAAAEQQSSNGPVKKSMREKAVERRSVNKEHNSNFKAGYIPIDEDRLHKTGLRGRKGNLAICVIILLFILAVINLIITLVIWAVIRIGPNGCDSMEFHESGLLRFKQVSDMGVIHPLYKSTVGGRRNENLVITGNNQPIVFQQNTTKLSVENNKTSITSDIGMQFFDPRTQNILFSTDYETHEFHLPSGVKSLNVQKASTERITSNATSDLNIKVDGRAIVRGNEGVFIMGKTIEFHMGGNMELKAENSIILNGSVMVSTTRLPSSSSGDQLGSGDWVRYKLCMCADGTLFKVQVTSQNMGCQISDNPCGNTH [G149N] | 0.19 |
| MAAAAAAAAEQQSSNGPVKKSMREKAVERRSVNKEHNSNFKAGYIPIDEDRLHKTGLRGRKGNLAICVIILLFILAVINLIITLVIWAVIRIGPNGCDSMEFHESGLLRFKQVSDMGVIHPLYKSTVGGRRNENLVITGNNQPIVFQQGTTKLSVENNKTSISSDIGMQFFDPRTQNILFSTDYETHEFHLPSGVKSLNVQKASTERITSNATSDLNIKVDGRAIVRGNEGVFIMGKTIEFHMGGNMELKAENSIILNGSVMVSTTRLPSSSSGDQLGSGDWVRYKLCMCADGTLFKVQVTSQNMGCQISDNPCGNTH [T163S] | -1.01 |
| MAAAAAAAAEQQSSNGPVKKSMREKAVERRSVNKEHNSNFKAGYIPIDEDRLHKTGLRGRKGNLAICVIILLFILAVINLIITLVIWAVIEIGPNGCDSMEFHESGLLRFKQVSDMGVIHPLYKSTVGGRRNENLVITGNNQPIVFQQGTTKLSVENNKTSITSDIGMQFFDPRTQNILFSTDYETHEFHLPSGVKSLNVQKASTERITSNATSDLNIKVDGRAIVRGNEGVFIMGKTIEFHMGGNMELKAENSIILNGSVMVSTTRLPSSSSGDQLGSGDWVRYKLCMCADGTLFKVQVTSQNMGCQISDNPCGNTH [R91E] | -0.8 |
| MAAAAAAAAEQQSSNGPVKKSMREKAVERRSVNKEHNSNFKAGYIPIDEDRLHKTGLRGRKGNLAICVIILLFILAVINLIITLVIWAVIRIGPNGCDSMEFHESGLLRFKQVSDMGVIHPLYKSTVGGRRNENLVITGNNQPIVFQQGTTKLSVENNKTSITSDIGMQFFDPRTQNILFSTDYETHEFHLPSGVKSLNVQKASTERITSNATSDLNIKVDGYAIVRGNEGVFIMGKTIEFHMGGNMELKAENSIILNGSVMVSTTRLPSSSSGDQLGSGDWVRYKLCMCADGTLFKVQVTSQNMGCQISDNPCGNTH [R223Y] | 0.77 |
| MAAAAAAAAEQQSSNGPVKKSMREKAVERRSVNKEHNSNFKAGYIPIDEDRLHKTGLRGRKGNLAICVIILLFILAVINLIITLVIWAVIRIGPNGCDSMEFHESGLLRFKQVSDMGVIHPLYKSTVGGRRNENLVITGNNQPIVFQQGTTKLSVENNKTSITSDIGMQFFPPRTQNILFSTDYETHEFHLPSGVKSLNVQKASTERITSNATSDLNIKVDGRAIVRGNEGVFIMGKTIEFHMGGNMELKAENSIILNGSVMVSTTRLPSSSSGDQLGSGDWVRYKLCMCADGTLFKVQVTSQNMGCQISDNPCGNTH [D172P] | -1.12 |
| MAAAAAAAAEQQSSNGPVKKSMREKAVERRSVNKEHNSNFKAGYIPIDEDRLHKTGLRGRKGNLAICVIILLFILAVINLIITLVIWAVIRIGPNGCDSMEFHESGLLRFKQVSDMGVIHPLYKSTVGGRRNENLVITGNNQPIVFQQGTTKLSVENNKTSITSDIGMQFFDPRTQNILFSTDYETHEFHLPSGVKSLNVQKASTERITSNATSDLNIKVDQRAIVRGNEGVFIMGKTIEFHMGGNMELKAENSIILNGSVMVSTTRLPSSSSGDQLGSGDWVRYKLCMCADGTLFKVQVTSQNMGCQISDNPCGNTH [G222Q] | 0.85 |
| MAAAAAAAAEQQSSNGPVKKSMREKAVERRSVNKEHNSNFKAGYIPIDEDRLHKTGLRGRKGNLAICVIILLFILAVINLIITLVIWAVIRIIPNGCDSMEFHESGLLRFKQVSDMGVIHPLYKSTVGGRRNENLVITGNNQPIVFQQGTTKLSVENNKTSITSDIGMQFFDPRTQNILFSTDYETHEFHLPSGVKSLNVQKASTERITSNATSDLNIKVDGRAIVRGNEGVFIMGKTIEFHMGGNMELKAENSIILNGSVMVSTTRLPSSSSGDQLGSGDWVRYKLCMCADGTLFKVQVTSQNMGCQISDNPCGNTH [G93I] | -2.15 |
| MAAAAAAAAEQQSSNGPVKKSMREKAVERRSVNKEHNSNFKAGYIPIDEDRLHKTGLRGRKGNLAICVIILLFILAVINLIITLVIWAVIRIGPNGCDSMEFHESGLLRFKQVSDMGVIHPLYKSTVGGRRNENLVITGNNQPIVFQQGTTKLSVENNKTSITSDIGMQFFDPRTQNILFSTDYETHEFHLPSGVKSLNVQKASTERITSNATSDLNIKVDGRAIVRGNEGVFIMGKTIEFHMGGNMELKAENSIILNGSVMVSTTRLPSSSSGDQLGSGDWVRYKLCMCADGTLFKVQVTSSNMGCQISDNPCGNTH [Q303S] | -0.43 |
| MAAAAAAAAEQQSSNGPVKKSMREKAVERRSVNKEHNSNFKAGYIPIDEDRLHKTGLRGRKGNLAICVIILLFILAVINLIITLVIWAVIRIGPNGCISMEFHESGLLRFKQVSDMGVIHPLYKSTVGGRRNENLVITGNNQPIVFQQGTTKLSVENNKTSITSDIGMQFFDPRTQNILFSTDYETHEFHLPSGVKSLNVQKASTERITSNATSDLNIKVDGRAIVRGNEGVFIMGKTIEFHMGGNMELKAENSIILNGSVMVSTTRLPSSSSGDQLGSGDWVRYKLCMCADGTLFKVQVTSQNMGCQISDNPCGNTH [D98I] | -1 |
| MAAAAAAAAEQQSSNGPVKKSMREKAVERRSVNKEHNSNFKAGYIPIDEDRLHKTGLRGRKGNLAICVIILLFILAVINLIITLVIWAVIRIGPNGCDSMEFHESGLLRFKQVSDMGVIHPLYKSTVGGRRNENLVITGNNQPIVFQQGTTKLSVENNKTSITSDIGMQFFDPRTQNILFSTDYETHEFHLPSGVKSLNVQKASTERITSNATSDLNIKVDGRAIVRGNEGVFIMGKTIEFHMGGNMELKAENSIILNGSVMVSTTRLPSSSSGDQLGSGDWVRYKLCDCADGTLFKVQVTSQNMGCQISDNPCGNTH [M289D] | -0.92 |
| MAAAAAAAAEQQSSNGPVKKSMREKAVERRSVNKEHNSNFKAGYIPIDEDRLHKTGLRGRKGNLAICVIILLFILAVINLIITLVIWAVIRIGPNGCDSMEFHESGLLRFKQVSDMGVIHPLYKSTVGGRRNENLVITGNNQPIVFQQGTTKLSVENNKTSITSDIGMQFFDPRTQNILFSTDYETHEFHLPSGVKSLNVQKASTERITSNATSDLNIKVDGRAAVRGNEGVFIMGKTIEFHMGGNMELKAENSIILNGSVMVSTTRLPSSSSGDQLGSGDWVRYKLCMCADGTLFKVQVTSQNMGCQISDNPCGNTH [I225A] | 0.41 |
| MAAAAAAAAEQQSSNGPVKKSMREKAVERRSVNKEHNSNFKAGYIPIDEDRLHKTGLRGRKGNLAICVIILLFILAVINLIITLVIWAVIRIGPNGCDSMEFHESGLLRFKQVSDMGVIHPLYKSTVGGRRNENLVITGNNQPWVFQQGTTKLSVENNKTSITSDIGMQFFDPRTQNILFSTDYETHEFHLPSGVKSLNVQKASTERITSNATSDLNIKVDGRAIVRGNEGVFIMGKTIEFHMGGNMELKAENSIILNGSVMVSTTRLPSSSSGDQLGSGDWVRYKLCMCADGTLFKVQVTSQNMGCQISDNPCGNTH [I144W] | -1.4 |
